Values of other authors, collected in patent US20260085103A1, “LONG-ACTING INSULIN COMPOUND” (CHENGDU AODA BIOTECHNOLOGY CO., LTD, priority 2022, published 2026).

How the values were obtained:
[1] = background statement, subcutaneous injection
[2] = after addition of two arginines at the end of the B chain (changed from 5.4)

## insulin degludec
[1]
  duration of action: up to 42 hours
  half-life: 24 h

## insulin glargine
[1]
  duration of action: 20 to 24 h
  half-life: 12 h
[2]
  isoelectric point: 6.7
